In this data set the target is T1, RheA (RheASal) (Streptomyces albidoflavus J1074) (UniProt O08247).
T1 sequence: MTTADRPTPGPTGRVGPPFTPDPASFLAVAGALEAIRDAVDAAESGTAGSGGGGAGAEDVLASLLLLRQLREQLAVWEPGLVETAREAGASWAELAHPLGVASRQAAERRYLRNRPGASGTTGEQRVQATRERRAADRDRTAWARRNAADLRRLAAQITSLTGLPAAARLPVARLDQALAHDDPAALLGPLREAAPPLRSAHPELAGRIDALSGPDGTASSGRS
Put plainly: EMSA. The conditions noted are these: 20 mM Tris-HCl pH 7.5, 1 mM DTT, 5 mM MgCl2, 0.5 mg/ml BSA, 5% glycerol, 20 uL, 30 C 25 min, 4.5% native PAGE in 45 mM Tris-HCl pH 8.0, 45 mM boric acid. Background: In EMSA bound probe runs differently from free probe, usually more slowly.

Turning to “GAGTGAACACCTCCAGAAGTCCAGGCAGTTGATGCCATGCGCTTCGCTTGGCACCGTTGTAACATGTCATCCGAACGATGACAAGCGAGTCGTCGTCCATCGGATGACGACCCGGAGTGATATC (double strand) [RS01 probe (one rheO)]”, the binding entry is recorded as “binds”.
